Reference: the supplement of paper PMC11246515
± gives the standard deviation of the averaged measurements.

Test: total protein half-life in vivo (active degradation + dilution); higher = more stable protein
[1] = wild type E. coli NCM3722, growth: C-lim chemostat, doubling time 3 h
[2] = wild type E. coli NCM3722, growth: C-lim chemostat, doubling time 6 h
[3] = wild type E. coli NCM3722, growth: C-lim chemostat, doubling time 12 h
[4] = E. coli NCM3722 delta-clpP delta-lon delta-hslV, growth: N-lim chemostat, doubling time 6 h
[5] = E. coli NCM3722 delta-clpP, growth: N-lim chemostat, doubling time 6 h
[6] = E. coli NCM3722 delta-smpB, growth: N-lim chemostat, doubling time 6 h
[7] = wild type E. coli NCM3722, growth: N-lim chemostat, doubling time 6 h
[8] = wild type E. coli NCM3722, growth: N-lim chemostat, doubling time 12 h
[9] = E. coli NCM3722 delta-hslV, growth: N-lim chemostat, doubling time 6 h
[10] = E. coli NCM3722 delta-lon, growth: N-lim chemostat, doubling time 6 h
[11] = wild type E. coli NCM3722, growth: P-lim chemostat, doubling time 6 h
[12] = wild type E. coli NCM3722, growth: P-lim chemostat, doubling time 12 h

Row | Sequence | total protein half-life in vivo [1] | total protein half-life in vivo [2] | total protein half-life in vivo [3] | total protein half-life in vivo [4] | total protein half-life in vivo [5] | total protein half-life in vivo [6] | total protein half-life in vivo [7] | total protein half-life in vivo [8] | total protein half-life in vivo [9] | total protein half-life in vivo [10] | total protein half-life in vivo [11] | total protein half-life in vivo [12]
1 | MNTTPSQRLGFLHHIRLVPLFACILGGILVLFALSSALAGYFLWQADRDQRDVTAEIEIRTGLANSSDFLRSARINMIQAGAASRIAEMEAMKRNIAQAESEIKQSQQGYRAYQNRPVKTPADEALDTELNQRFQAYITGMQPMLKYAKNGMFEAIINHESEQIRPLDNAYTDILNKAVKIRSTRANQLAELAHQRTRLGGMFMIGAFVLALVMTLITFMVLRRIVIRPLQHAAQRIEKIASGDLTMNDEPAGRNEIGRLSRHLQQMQHSLGMTVGTVRQGAEEIYRGTSEISAGNADLSSRTEEQAAAIEQTAASMEQLTATVKQNADNAHHASKLAQEASIKASDGGQTVSGVVKTMGAISTSSKKISEITAVINSIAFQTNILALNAAVEAARAGEQGRGFAVVASEVRTLASRSAQAAKEIEGLISESVRLIDLGSDEVATAGKTMSTIVDAVASVTHIMQEIAAASDEQSRGITQVSQAISEMDKVTQQNASLVEEASAAAVSLEEQAARLTEAVDVFRLHKHSVSAEPRGAGEPVSFATV | 2.39 ± 0.0043 h | 4.42 ± 0.23 h | 6.36 ± 0.25 h | – | – | – | – | – | – | – | – | –
2 | MTDQAEKKHSAFWGVMVIAGTVIGGGMFALPVDLAGAWFFWGAFILIIAWFSMLHSGLLLLEANLNYPVGSSFNTITKDLIGNTWNIISGITVAFVLYILTYAYISANGAIISETISMNLGYHANPRIVGICTAIFVASVLWLSSLAASRITSLFLGLKIISFVIVFGSFFFQVDYSILRDATSSTAGTSYFPYIFMALPVCLASFGFHGNIPSLIICYGKRKDKLIKSVVFGSLLALVIYLFWLYCTMGNIPRESFKAIISSGGNVDSLVKSFLGTKQHGIIEFCLLVFSNLAVASSFFGVTLGLFDYLADLFKIDNSHGGRFKTVLLTFLPPALLYLIFPNGFIYGIGGAGLCATIWAVIIPAVLAIKARKKFPNQMFTVWGGNLIPAIVILFGITVILCWFGNVFNVLPKFG | 3.24 ± 0.27 h | 5.07 ± 1.3 h | 11 h | – | – | – | – | – | – | – | – | –
3 | MRNFDLSPLMRQWIGFDKLANALQNAGESQSFPPYNIEKSDDNHYRITLALAGFRQEDLEIQLEGTRLSVKGTPEQPKEEKKWLHQGLMNQPFSLSFTLAENMEVSGATFVNGLLHIDLIRNEPEPIAAQRIAISERPALNS [P0C058] | 1.03 h | – | 1.59 h | 6.3 ± 0.16 h | 2.21 ± 0.097 h | 1.42 h | 4.47 h | 3.19 h | – | – | – | –
4 | MHAYLHCLSHSPLVGYVDPAQEVLDEVNGVIASARERIAAFSPELVVLFAPDHYNGFFYDVMPPFCLGVGATAIGDFGSAAGELPVPVELAEACAHAVMKSGIDLAVSYCMQVDHGFAQPLEFLLGGLDKVPVLPVFINGVATPLPGFQRTRMLGEAIGRFTSTLNKRVLFLGSGGLSHQPPVPELAKADAHMRDRLLGSGKDLPASERELRQQRVISAAEKFVEDQRTLHPLNPIWDNQFMTLLEQGRIQELDAVSNEELSAIAGKSTHEIKTWVAAFAAISAFGNWRSEGRYYRPIPEWIAGFGSLSARTEN [P0ABR9] | – | – | – | 5.32 h | – | – | – | – | – | – | – | –
5 | MALTAALKAQIAAWYKALQEQIPDFIPRAPQRQMIADVAKTLAGEEGRHLAIEAPTGVGKTLSYLIPGIAIAREEQKTLVVSTANVALQDQIYSKDLPLLKKIIPDLKFTAAFGRGRYVCPRNLTALASTEPTQQDLLAFLDDELTPNNQEEQKRCAKLKGDLDTYKWDGLRDHTDIAIDDDLWRRLSTDKASCLNRNCYYYRECPFFVARREIQEAEVVVANHALVMAAMESEAVLPDPKNLLLVLDEGHHLPDVARDALEMSAEITAPWYRLQLDLFTKLVATCMEQFRPKTIPPLAIPERLNAHCEELYELIASLNNILNLYMPAGQEAEHRFAMGELPDEVLEICQRLAKLTEMLRGLAELFLNDLSEKTGSHDIVRLHRLILQMNRALGMFEAQSKLWRLASLAQSSGAPVTKWATREEREGQLHLWFHCVGIRVSDQLERLLWRSIPHIIVTSATLRSLNSFSRLQEMSGLKEKAGDRFVALDSPFNHCEQGKIVIPRMRVEPSIDNEEQHIAEMAAFFRKQVESKKHLGMLVLFASGRAMQRFLDYVTDLRLMLLVQGDQPRYRLVELHRKRVANGERSVLVGLQSFAEGLDLKGDLLSQVHIHKIAFPPIDSPVVITEGEWLKSLNRYPFEVQSLPSASFNLIQQVGRLIRSHGCWGEVVIYDKRLLTKNYGKRLLDALPVFPIEQPEVPEGIVKKKEKTKSPRRRRR | 2.59 ± 0.09 h | 3.93 ± 0.69 h | 9.99 ± 0.84 h | 5.64 ± 0.42 h | 4.6 ± 0.54 h | 4.63 ± 0.33 h | 4.18 ± 0.2 h | 6.77 ± 1.1 h | 4.38 ± 0.61 h | 4.265 ± 0.026 h | 4.57 ± 0.25 h | 8.11 ± 0.31 h
6 | MICRFIDTHCHFDFPPFSGDEEASLQRAAQAGVGKIIVPATEAENFARVLALAENYQPLYAALGLHPGMLEKHSDVSLEQLQQALERRPAKVVAVGEIGLDLFGDDPQFERQQWLLDEQLKLAKRYDLPVILHSRRTHDKLAMHLKRHDLPRTGVVHGFSGSLQQAERFVQLGYKIGVGGTITYPRASKTRDVIAKLPLASLLLETDAPDMPLNGFQGQPNRPEQAARVFAVLCELRREPADEIAQALLNNTYTLFNVP | 3.12 ± 0.34 h | > 8 h | 9.45 ± 4.5 h | 5.92 ± 0.41 h | 4.26 ± 0.21 h | 4.45 ± 0.36 h | 4.57 ± 0.41 h | 8.41 ± 1.9 h | 4.72 ± 0.12 h | 6.38 ± 1.4 h | – | 12.3 ± 0.15 h
7 | MERFLENAMYASRWLLAPVYFGLSLALVALALKFFQEIIHVLPNIFSMAESDLILVLLSLVDMTLVGGLLVMVMFSGYENFVSQLDISENKEKLNWLGKMDATSLKNKVAASIVAISSIHLLRVFMDAKNVPDNKLMWYVIIHLTFVLSAFVMGYLDRLTRHNH | 2.92 ± 0.05 h | – | 11.8 ± 1.8 h | – | – | 5.64 ± 0.26 h | 4.99 ± 0.67 h | – | – | 6.103 ± 0.048 h | 5.88 h | 10.6 h
8 | MANYFIDRPVFAWVLAIIMMLAGGLAIMNLPVAQYPQIAPPTITVSATYPGADAQTVEDSVTQVIEQNMNGLDGLMYMSSTSDAAGNASITLTFETGTSPDIAQVQVQNKLQLAMPSLPEAVQQQGISVDKSSSNILMVAAFISDNGSLNQYDIADYVASNIKDPLSRTAGVGSVQLFGSEYAMRIWLDPQKLNKYNLVPSDVISQIKVQNNQISGGQLGGMPQAADQQLNASIIVQTRLQTPEEFGKILLKVQQDGSQVLLRDVARVELGAEDYSTVARYNGKPAAGIAIKLAAGANALDTSRAVKEELNRLSAYFPASLKTVYPYDTTPFIEISIQEVFKTLVEAIILVFLVMYLFLQNFRATIIPTIAVPVVILGTFAILSAVGFTINTLTMFGMVLAIGLLVDDAIVVVENVERVIAEDKLPPKEATHKSMGQIQRALVGIAVVLSAVFMPMAFMSGATGEIYRQFSITLISSMLLSVFVAMSLTPALCATILKAAPEGGHKPNALFARFNTLFEKSTQHYTDSTRSLLRCTGRYMVVYLLICAGMAVLFLRTPTSFLPEEDQGVFMTTAQLPSGATMVNTTKVLQQVTDYYLTKEKDNVQSVFTVGGFGFSGQGQNNGLAFISLKPWSERVGEENSVTAIIQRAMIALSSINKAVVFPFNLPAVAELGTASGFDMELLDNGNLGHEKLTQARNELLSLAAQSPNQVTGVRPNGLEDTPMFKVNVNAAKAEAMGVALSDINQTISTAFGSSYVNDFLNQGRVKKVYVQAGTPFRMLPDNINQWYVRNASGTMAPLSAYSSTEWTYGSPRLERYNGIPSMEILGEAAAGKSTGDAMKFMADLVAKLPAGVGYSWTGLSYQEALSSNQAPALYAISLVVVFLALAALYESWSIPFSVMLVVPLGVVGALLATDLRGLSNDVYFQVGLLTTIGLSAKNAILIVEFAVEMMQKEGKTPIEAIIEAARMRLRPILMTSLAFILGVLPLVISHGAGSGAQNAVGTGVMGGMFAATVLAIYFVPVFFVVVEHLFARFKKA | – | – | – | 6.822 ± 0.011 h | – | – | 5.55 h | 12.5 ± 3.7 h | 5.41 ± 0.53 h | 5.03 ± 0.059 h | 5.7 ± 0.79 h | 12.5 ± 1.6 h
9 | MKRLSITVRLTLLFILLLSVAGAGIVWTLYNGLASELKWRDDTTLINRTAQIKQLLIDGVNPDTLPVYFNRMMDVSQDILIIHGDSINKIVNRTNVSDGMLNNIPASETISAAGIYRSIINDTEIDALRINIDEVSPSLTVTVAKLASARHNMLEQYKINSIIICIVAIVLCSVLSPLLIRTGLREIKKLSGVTEALNYNDSREPVEVSALPRELKPLGQALNKMHHALVKDFERLSQFADDLAHELRTPINALLGQNQVTLSQTRSIAEYQKTIAGNIEELENISRLTENILFLARADKNNVLVKLDSLSLNKEVENLLDYLEYLSDEKEICFKVECNQQIFADKILLQRMLSNLIVNAIRYSPEKSRIHITSFLDTNSYLNIDIASPGTKINEPEKLFRRFWRGDNSRHSVGQGLGLSLVKAIAELHGGSATYHYLNKHNVFRITLPQRN | 3.13 ± 0.66 h | 7.13 ± 0.64 h | 10.1 h | 5.59 ± 0.15 h | 6.99 ± 0.076 h | 5.75 ± 0.48 h | 6.174 ± 0.057 h | 12.98 ± 0.022 h | 6.03 ± 0.26 h | – | 5.63 ± 0.89 h | 13.4 ± 0.56 h
